Target: T1, murine MFAP4 (microfibrillar-associated protein-4) on mouse DNT cells (murine, UniProt Q9D1H9 23-257)
T1 sequence: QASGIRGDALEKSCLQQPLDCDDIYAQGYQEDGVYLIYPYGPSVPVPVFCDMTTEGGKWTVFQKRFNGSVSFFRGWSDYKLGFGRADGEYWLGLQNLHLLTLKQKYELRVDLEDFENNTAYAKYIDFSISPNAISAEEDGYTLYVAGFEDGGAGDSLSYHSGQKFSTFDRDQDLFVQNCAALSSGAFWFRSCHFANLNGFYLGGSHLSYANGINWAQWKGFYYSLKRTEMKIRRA
Assay: flow cytometry on mouse DNT cell clones (target later identified as MFAP4)

B1: G1 monoclonal antibody (antibody, V domains shown)
VH: EVKLVESGGGLVQPGRSLKLSCAASGFPFSNYGMAWVRQAPTKGLAWVATISYDGRSTYYRDSVKGRFTISRNNAKSTLYLQMDSLRSEDTATYYCVRHELPEDHWGQGVMVTVSS
VL: DIVMTQSPFSLAVSEGEMVTINCKSGQSLLSSGNQKNYLAWYQQKPGQSPKLLIYYSSTRQSGVPDRFIGSGSGTDFTLTISDVQAEDLADYYCLQHYSSPFTFGSGTKLEIK
notes: Hybridoma monoclonal antibody raised against cell surface molecules of tumor-reactive mouse DNT cells; also called G1 mAb; mAb (clone: G1)
Question: Does B1 bind?
Answer: Result: binds

Reference: patent US20110059097A1 (UNIVERSITY HEALTH NETWORK, published 2011)
